In patent US20140248295A1 (ROCKEFELLER UNIVERSITY, published 2014):

These binders were tested against T1, Recombinant sCD4 comprising the full-length extracellular domain of human CD4 (human, UniProt P01730 26-396) (assay: SPR (Biacore), antibody on CM5 chip by amine coupling, sCD4 as analyte, 25 C).
T1 construct: also called human sCD4 protein; CD4 protein
Method: Binding affinity analyses were performed with a T3000 instrument (GE Healthcare, Piscataway, N.J.). […] Briefly, carboxyl groups on the sensor chip surface were activated by injection of a solution containing 0.2 M EDC and 0.05 M NHS. Next, sCD4 protein in 10 mM NaOAc buffer (pH5) was flowed over the chip surface until the desired level of response units was achieved. After unreacted protein was washed out, excess active ester groups on the sensor surface were capped by the injection of 1 M ethanolamine, pH 8.0. Binding experiments were performed at 25° C. in HBS-EP buffer (GE Healthcare). Binding kinetics were measured by passing various concentrations of human sCD4 protein over the chip surface. For kinetics data analysis, the kinetic parameters ([…], association rate constant; koff, dissociation rate constant; KD, equilibrium dissociation constant) were determined by collectively fitting the overlaid sensograms using the BIAevaluation 4.1 software.
CD4 binding affinities of these mutant antibodies were examined using surface plasmon resonance.

| Binder | Kd [nM] |
| --- | --- |
| Ibalizumab light chain mutant LM30E (antibody, human IgG1, kappa, V domains shown) VH: QVQLQQSGPEVVKPGASVKMSCKASGYTFTSYVIHWVRQKPGQGLDWIGYINPYNDGTDYDEKFKGKATLTSDTSTSTAYMELSSLRSEDTAVYYCAREKDNYATGAWFAYWGQGTLVTVSS VL: DIVMTQSPDSLAVSLGERVTMNCKSSQSLLYSTNNATYLAWYQQKPGQSPKLLIYWASTRESGVPDRFSGSGSGTDFTLTISSVQAEDVAVYYCQQYYSYRTFGGGTKLEIKR | 1.3 |
| Ibalizumab light chain mutant LM67 (antibody, human IgG1, kappa, V domains shown) VH: QVQLQQSGPEVVKPGASVKMSCKASGYTFTSYVIHWVRQKPGQGLDWIGYINPYNDGTDYDEKFKGKATLTSDTSTSTAYMELSSLRSEDTAVYYCAREKDNYATGAWFAYWGQGTLVTVSS VL: DIVMTQSPDSLAVSLGERVTMNCKSSQSLLYSTNQKNYLAWYQQKPGQSPKLLIYWASTRESGVPDRFSGSGNATDFTLTISSVQAEDVAVYYCQQYYSYRTFGGGTKLEIKR | 0.8 |
| Ibalizumab light chain mutant LM52 (antibody, human IgG1, kappa, V domains shown, also called iMab-LM52; Ibalizumab LM52) VH: QVQLQQSGPEVVKPGASVKMSCKASGYTFTSYVIHWVRQKPGQGLDWIGYINPYNDGTDYDEKFKGKATLTSDTSTSTAYMELSSLRSEDTAVYYCAREKDNYATGAWFAYWGQGTLVTVSS VL: DIVMTQSPDSLAVSLGERVTMNCKSSQSLLYSTNQKNYLAWYQQKPGQSPKLLIYWANSTESGVPDRFSGSGSGTDFTLTISSVQAEDVAVYYCQQYYSYRTFGGGTKLEIKR | 0.35 |
| Ibalizumab light chain mutant LM65 (antibody, human IgG1, kappa, V domains shown) VH: QVQLQQSGPEVVKPGASVKMSCKASGYTFTSYVIHWVRQKPGQGLDWIGYINPYNDGTDYDEKFKGKATLTSDTSTSTAYMELSSLRSEDTAVYYCAREKDNYATGAWFAYWGQGTLVTVSS VL: DIVMTQSPDSLAVSLGERVTMNCKSSQSLLYSTNQKNYLAWYQQKPGQSPKLLIYWASTRESGVPDRFSGNATGTDFTLTISSVQAEDVAVYYCQQYYSYRTFGGGTKLEIKR | 1.5 |
| Ibalizumab light chain mutant LM53 (antibody, human IgG1, kappa, V domains shown) VH: QVQLQQSGPEVVKPGASVKMSCKASGYTFTSYVIHWVRQKPGQGLDWIGYINPYNDGTDYDEKFKGKATLTSDTSTSTAYMELSSLRSEDTAVYYCAREKDNYATGAWFAYWGQGTLVTVSS VL: DIVMTQSPDSLAVSLGERVTMNCKSSQSLLYSTNQKNYLAWYQQKPGQSPKLLIYWASNATSGVPDRFSGSGSGTDFTLTISSVQAEDVAVYYCQQYYSYRTFGGGTKLEIKR | 0.53 |
| Ibalizumab light chain mutant LM76 (antibody, human IgG1, kappa, V domains shown) VH: QVQLQQSGPEVVKPGASVKMSCKASGYTFTSYVIHWVRQKPGQGLDWIGYINPYNDGTDYDEKFKGKATLTSDTSTSTAYMELSSLRSEDTAVYYCAREKDNYATGAWFAYWGQGTLVTVSS VL: DIVMTQSPDSLAVSLGERVTMNCKSSQSLLYSTNQKNYLAWYQQKPGQSPKLLIYWASTRESGVPDRFSGSGSGTDFTLTINATQAEDVAVYYCQQYYSYRTFGGGTKLEIKR | 0.28 |
| Ibalizumab light chain mutant LM60 (antibody, human IgG1, kappa, V domains shown) VH: QVQLQQSGPEVVKPGASVKMSCKASGYTFTSYVIHWVRQKPGQGLDWIGYINPYNDGTDYDEKFKGKATLTSDTSTSTAYMELSSLRSEDTAVYYCAREKDNYATGAWFAYWGQGTLVTVSS VL: DIVMTQSPDSLAVSLGERVTMNCKSSQSLLYSTNQKNYLAWYQQKPGQSPKLLIYWASTRESGVPNATSGSGSGTDFTLTISSVQAEDVAVYYCQQYYSYRTFGGGTKLEIKR | 0.19 |
